Assay: Intact half-life during simulated gastric fluid (SGF) digestion
Details: SGF pH 1.5, pepsin:polypeptide 1:20 w/w, 37° C.; produced in E. coli unless otherwise noted

Molecule | SGF Half-life (t½) [min]
SEQID-00407 (BS): a-amylase in Bacillus subtilis (amyE); Wild-type of Tables E37A and E38E (protein, listed as Bacillus subtilis, strain 168) ETANKSNELTAPSIKSGTILHAWNWSFNTLKHNMKDIHDAGYTAIQTSPINQVKEGNQGDKSMSNWYWLYQPTSYQIGNRYLGTEQEFKEMCAAAEEYGIKVIVDAVINHTTSDYAAISNEVKSIPNWTHGNTQIKNWSDRWDVTQNSLLGLYDWNTQNTQVQSYLKRFLDRALNDGADGFRFDAAKHIELPDDGSYGSQFWPNITNTSAEFQYGEILQDSASRDAAYANYMDVTASNYGHSIRSALKNRNLGVSNISHYASDVSADKLVTWVESHDTYANDDEESTWMSDDDIRLGWAVIASRSGSTPLFFSRPEGGGNGVRFPGKSQIGDRGSALFEDQAITAVNRFHNVMAGQPEELSNPNGNNQIFMNQRGSHGVVLANAGSSSVSINTATKLPDGRYDNKAGAGSFQVNDGKLTGTINARSVAVLYPDDIAKAPHVFLENYKTGVTHSFNDQLTITLRADANTTKAVYQINNGPETAFKDGDQFTIGKGDPFGKTYTIMLKGTNSDGVTRTEKYSFVKRDPASAKTIGYQNPNHWSQVNAYIYKHDGSRVIELTGSWPGKPMTKNADGIYTLTLPADTDTTNAKVIFNNGSAQVPGQNQPGFDYVLNGLYNDSGLSGSLPH | 0.2
SEQID-00284: nutritive polypeptide (protein, listed as Arabidopsis thaliana) KLEHGVHVVSGTPGRVCDMIKRRSLRTRAIKLLILDESDEMLSRGFKDQIYDVYRYLPPDLQVCLVSATLPHEILEMTSKFMTEPVKILVKRDELTLEGIKQFFVAVEKEEWK | 1
SEQID-00363 (E. coli): nutritive polypeptide (protein, Aspergillus niger) ATLDSWLSNEATVARTAILNNIGADGAWVSGADSGIVVASPSTDNPDYFYTWTRDSGLVLKTLVDLFRNGDTSLLSTIENYISAQAIVQGISNPSGDLSSGAGLGEPKFNVDETAYTGSWGRPQRDGPALRATAMIGFGQWLLDNGYTSTATDIVWPLVRNDLSYVAQYWNQTGYDLWEEVNGSSFFTIAVQHRALVEGSAFATAVGSSCSWCDSQAPEILCYLQSFWTGSFILANFDSSRSGKDANTLLGSIHTFDPEAACDDSTFQPCSPRALANHKEVVDSFRSIYTLNDGLSDSEAVAVGRYPEDTYYNGNPWFLCTLAAAEQLYDALYQWDKQGSLEVTDVSLDFFKALYSDAATGTYSSSSSTYSSIVDAVKTFADGFVSIVETHAASNGSMSEQYDKSDGEQLSARDLTWSYAALLTANNRRNSVVPASWGETSASSVPGTCAATSAIGTYSSVTVTSWPSIVATGGTTTTATPTGSGSVTSTSKTTATASKTSTSTSSTSCTTPTAVAVTFDLTATTTYGENIYLVGSISQLGDWETSDGIALSADKYTSSDPLWYVTVTLPAGESFEYKFIRIESDDSVEWESDPNREYTVPQACGTSTATVTDTWR | <10
SEQID-00346: nutritive polypeptide (protein, Arthrospira platensis NIES-39) MYYDADANLDLLAGKTIAIVGYGSQGHAHALNLKDSGMNVIVGLYPGSKSATKAKDAGLTVYPVDEAAKIADLIMILLPDEVQKTVYKNEIEPNLSEGKTLAFAHGFNIHFGQVVPPENVDVIMVAPKGPGHLVRRTYQEGQGVPCLFAVYQDASGQARDRAMAYAKGIGGTRGGILETTFREETETDLFGEQAVLCGGLSALIKAGFETLVEAGYQPELAYFECLHEVKLIVDLVVEGGLAQMRDSISNTAEYGDYTRGPRVITDATRAEMRKILKEIQTGQFAREFVLENQSGKAGFTAMRRQEAEHPIEEVGHDLRAMFSWLKKKA | 0.2
SEQID-00345: nutritive polypeptide (protein, Arthrospira platensis NIES-39) MNTLDLQNQRILVTGGAGFLGKQVIDQLLKAGAKSENISVPRSHNCDLRNLEACQQAAKGQDIIIHLAAHVGGIGLNQVKPAELFYDNLMMGTQLIHSAYQAGVKKFVCVGTICAYPKFTPVPFQEDDLWNGYPEETNAPYGIAKKALLVQLQAYRQQYGFNGIYLLPVNLYGPEDNFNPKSSHVIPALVRKVYEAQQRGDKQLPVWGDGSPSREFLYSTDAARGIVMATQHYDEPDPVNLGTNSEVTIRDLVELICELMEFQGEIVWETDKPNGQPRRCLDTNRAKERFGFVAEVEFRQGLKNTIDWYRQNPDL | 0.8
SEQID-00338 (BS): nutritive polypeptide (protein, listed as Saccharomyces cerevisiae, strain ATCC 204508 / S288c) MSSSESIRMVLIGPPGAGKGTQAPNLQERFHAAHLATGDMLRSQIAKGTQLGLEAKKIMDQGGLVSDDIMVNMIKDELTNNPACKNGFILDGFPRTIPQAEKLDQMLKEQGTPLEKAIELKVDDELLVARITGRLIHPASGRSYHKIFNPPKEDMKDDVTGEALVQRSDDNADALKKRLAAYHAQTEPIVDFYKKTGIWAGVDASQPPATVWADILNKLGKD | 0.2
SEQID-00298 (AN): nutritive polypeptide naturally produced in Cow (protein, listed as Bos taurus) MGLSDGEWQLVLNAWGKVEADVAGHGQEVLIRLFTGHPETLEKFDKFKHLKTEAEMKASEDLKKHGNTVLTALGGILKKKGHHEAEVKHLAESHANKHKIPVKYLEFISDAIIHVLHAKHPSDFGADAQAAMSKALELFRNDMAAQYKVLGFHG | 0.3
SEQID-00298 (BS): nutritive polypeptide naturally produced in Cow (protein, listed as Bos taurus) MGLSDGEWQLVLNAWGKVEADVAGHGQEVLIRLFTGHPETLEKFDKFKHLKTEAEMKASEDLKKHGNTVLTALGGILKKKGHHEAEVKHLAESHANKHKIPVKYLEFISDAIIHVLHAKHPSDFGADAQAAMSKALELFRNDMAAQYKVLGFHG | 0.1
SEQID-00343: nutritive polypeptide (protein, Glycine max) MATLIAPSHHSRVEDAEALRNAFKGWGADDKAIIAILGHRNVHQRQEIRKAYEEIYQEDLIKRLESEISGDFERAMYRWMLQPADRDAVLVNVAIKNGTKDYHVIAEIACVLSAEELLAVRRAYHRRYKCSLEEDVAANTTGNLRQLLVGLVTSYRYEGDEINVKFSQTEANVLHESVKEKKGNSEEVIRILTTRSKTQLVATFNRYRDEHGISISKKLLDQTSDDFHKVLHTAIRCINDHKKYYEKVLRNAVKKFGTDEDGLSRVIVTRAEKDLKDIKELYYKRNSVHLEDEVSKETSGDYKKFLLTLLGK | 0.3
SEQID-00356: nutritive polypeptide (protein, Glycine max) MATAAEKLSALKSAVAGLNEISENEKNGFISLVGRYLSGEAQHVEWSKIQTPTDEVVVPYDTLAPTPEGSSEVKNLLDKLVVLKLNGGLGTTMGCTGPKSVIEVRDGLTFLDLIVIQIENLNSKYGSNVPLLLMNSFNTHDDTQKIVEKYQNSNIEIHTFNQSQYPRLVVEDFLPLPSKGHTDKDGWYPPGHGDVFPSLLNSGKLDALLSQGKEYVFVANSDNLGAIVDLKILNHLIQNKNEYCMEVTPKTLADVKGGTLISYEGRVQLLEIAQVPDEHVNEFKSIEKFKIFNTNNLWVNLNAVKRLVEADALKMEIIPNPKEVDGIKVLQLETAAGAAIRFFDKAIGINVPRSRFLPVKATSDLLLVQSDLYTLEDGFVIRNKARENPENPSIELGPEFKKVSNFLGRFKSIPSIVELDSLKVAGDVWFGAGVILKGKVSIVSKPGVKLEVPDGVAIVDKEINGPEDL | 0.2
SEQID-00357: nutritive polypeptide (protein, Arthrospira platensis NIES-39) MKPLNRRTKIVATIGPASNSREVLYQMIQAGMNVVRLNFSHGSHEQHTKTVALLKEISQELKTSITLLQDLQGPKIRVGQLPDGGIQLMAGEYITLVPIDQYESKPNTIAIDYLHLGEEAEIGAQVLLDDGLLELKVEEISGNQVKCKIIEGGTLKSRKGVNLPSLTLRLPSLTEKDQQDLEFGISLGVDWVSLSFVRNAEDVRVLKDFLASKNASQISVMAKIEKPQAIANLEEIISECNGLMVARGDLGVEMSPERVPLLQKQIIRLCNQKGIPVITATQMLDSMINNPRPTRAEASDVANAIIDGTDAVMLSGESAVGKYPIRAVEMLAKIAEDVEPEINFINYPPAFNDETHAISEAINTIDKIIDLHCIIAYTCSGYTGQLAAAERPKAPVVALTPNPKVYHRLNLVWGVKPLLLEQEVESFEELINQAQTYLLVRQMASPGDKILIIGGIPSGKAKGTNFIKIHTIG | 0.2
SEQID-00359: nutritive polypeptide naturally produced in Sheep, recombinantly expressed in E. coli (protein, Arthrospira platensis NIES-39) MLELGSQRNRAKNNHIGDLMSQSFESLGISEQRARHLETLGFTEPTPVQIQAIPEMLSGRDVVGMAQTGTGKTAAFSLPILEQIDVHAAGIQALVLTPTRELAMQVKEAIRTFSDDNALYVLTVYGGQSIDRQIQRLRRGVQVVVGTPGRILDLLNRGELKLDLLRWLVLDEADEMLSMGFIQDVEKILESADSEHRQTAFFSATMDASISKLVRRHLKSPVTVKVETPKATPKRIEQSVYMVPRGWSKARALEPILELEDPESAIIFVRTKQSAADLTNQLQAAGHSVDEYHGNLNQSQRERLLMRLRRRQVRWIVATDIAARGLDVDHLTHVINYDLPDQVDSYVHRIGRTGRAGREGKAITLIQPIDRRKLRNIERHLRQTLSIQSIPKRAEIEARYIDRLKDRVRDALAGERMASFLPIVSQLSEEYDPHAIAAAALQLAYDQTRPASIGRDDYEDDDDAVSNKPKLIKRRRPASVSNNS | 0.2
SEQID-00354: nutritive polypeptide (protein, Ovis aries) MSLSNKLTLDKLDVKGKRVVMRVDFNVPMKNNQITNNQRIKAAVPSIKYCLDSGAKSVVLMSHLGRPDGVPMPDKYSLQPVAVELKSLLGKDVLFLKDCVGPEVEKACADPAAGSVILLENLRFHVEEEGKGKDASGNKVKAEPTKIEAFRASLSKLGDVYVNDAFGTAHRAHSSMVGVNLPKKAGGFLMKKELNYFAKALESPERPFLAILGGAKVADKIQLISNMLDKVNEMIIGGGMAFTFLKVLNNMEIGTSLFDEEGSKIVKDLMSKADKNGVKITLPVDFVTADKFDENAKTGQATVASGIPVGWMGLDCGPESSKKYAEAVARAKQIVWNGPVGVFEWEAFARGTKALMDEVVKATSRGCITIIGGGDTATCCAKWNTEDKVSHVSTGGGASLELLEGKVLPGVDALSSV | 0.2

Source: patent US20260069656A1, “Nutritive Polypeptides and Formulations Thereof, and Methods of Production and Use Thereof” (Axcella Health Inc., priority 2013, published 2026)
